This data set in a line: label from the status in PepcDB records.
For “MTTMVNVDTLPEYEKSQIKRALELGTVMTVFNARKSTPERRTVQMIMETRQVAWSKTADKIEGFLDIMEIKEIRPGKNSKDFERAKAVRHKAECCFTILYGTQFVLSTLSLATDSKEDAVKWLSGLKILHQEAMSASTPTMIESWLRKQIYSVDQTRRNSISLRELKTILPLVNFKVSGIKFLKDKLVEIGAQKDELSFEQFHLFYKKLMFDQQKSILDEFKKDSSVFILGNTDRPDASAVYLQDFQRFLLHEQQELWAQDLNKVRERMTKFIDDTMRETAEPFLFVDEFLTYLFSRENSIWDEKYDAVDMQDMNNPLSHYWISSSHNTYLTGDQLRSESSTEAYIRCLRAGCRCIELDCWDGPDGKPIIYHGWTRTTKIKFDDVVQAIRDHAFVTSSFPVILSIEEHCSVEQQRHMAKVFKEVLGDMLLTKPTEASADQLPSPSQLREKIIIKHKKLGPKGDVDVNVEDKKDEHKPQGELYMWDSIDQKWTRHYCAIADAKLSFGDDIEQAVEEEPVQDTPPTELHFGEKWFHKKVESRTSAEKLLQEYCAETGAKDGTFLVRESETFPNDYTLSFWRSGRVQHCRIRSTMENGVMKYYLTDNLTFNSIYALIQHYREAHLRCAEFELRLTDPVPNPNPHESKPWYYDSLSRGEAEDMLMRIPRDGAFLIRKREGTNSYAITFRARGKVKHCRINRDGRHFVLGTSAYFESLVELVSYYEKHALYRKMRLRYPVTPELLERYNMERDINSLYDVSRMYVDPSEINPSMPQRTVKALYDYKAKRSDELTFCRGALIHNVSKEPGGWWKGDYGTRIQQYFPSNYVEDISAGDAEEMEKQIIEDNPLGSLCKGILDLNTYNVVKAPQGKNQKAFVFILEPKKQGDPPVEFATDRVEELFEWFQSIREITWKMDTKENNMKYWERNQSIAIELSDLVVYCKPTSKTKDHLENPDFREIRSFVETKADSIVRQKPVDLLRYNQKGLTRVYPKGQRVDSSNYDPFRLWLCGSQMVALNFQTPDKYMQMNHALFSLNGRTGYVLQPESMRSEKYDPMPLESQRKILMTLTVKVLGARHLPKLGRSIACPFVEVEICGAEYDSNKFKTTVVNDNGLSPVWAPTQEKVTFEIYDPNLAFLRFVVYEEDMFSDPNFLAHATYPIKGIKSGFRSVPLKNGYSEDIELASLLVFCEMRPVLESEEELYSSCRQLRRRQEELNNQLFLYDTHQNLRGANRDALVKEFNVNENQLQLYQEKCNRRLREKRVSNSRFYS”, the protein production result is reported as “not failed”.
As for “MTTNTIMEQEARTAPQKIAEQLLANDAITESLGSVLREFKPKFVMIVGRGSSDHAGVFAKYLFEIEASIPTFAAAPSVASVYGKTLKLAGGLVIVISQSGRSPDILAQARMAKNAGAFCVALVNDETAPIKDIVDVVIPLRAGEEKAVAATKSYLATLSALLQVAAKWTQNESLVEAVNSLPQALQAAVDAEPQLRAGSLTDVKNLVVLGRGFGYAVSKEIALKLKEVCAIHAEAFSSAEFLHGPVTLVEKKLSILDVCIRDESYGSHVEQIANVKQRGANLIHLHQTSADIHPRIAPLALLQRFYIDVAAVAIALGINPDKPAGLKKVTQTL”, the protein production entry was “not failed”.
For the sequence “MTTPIRVVVWNEFRHEKKDEQVRAIYPEGMHTVIASYLAEAGFDAATAVLDEPEHGLTDEVLDRCDVLVWWGHIAHDEVKDEVVERVHRRVLEGMGLIVLHSGHFSKIFKKLMGTTCNLKWREADEKERLWVVAPGHPIVEGIGPYIELEQEEMYGEFFDIPEPDETIFISWFEGGEVFRSGCTFTRGKGKIFYFRPGHETYPTYHHPDVLKVIANAVRWAAPVNRGEIVFGNVKPLEPIKAKQGGVTQ”, the protein production result was “not failed”.
As to “MTTPVDAPKWPRQIPYIIASEACERFSFYGMRNILTPFLMTALLLSIPEELRGAVAKDVFHSFVIGVYFFPLLGGWIADRFFGKYNTILWLSLIYCVGHAFLAIFEHSVQGFYTGLFLIALGSGGIKPLVSSFMGDQFDQSNKSLAQKAFDMFYFTINFGSFFASLSMPLLLKNFGAAVAFGIPGVLMFVATVFFWLGRKRYIHMPPEPKDPHGFLPVIRSALLTKVEGKGNIGLVLALIGGVSAAYALVNIPTLGIVAGLCCAMVLVMGFVGAGASLQLERARKSHPDAAVDGVRSVLRILVLFALVTPFWSLFDQKASTWILQANDMVKPQWFEPAMMQALNPLLVMLLIPFNNFVLYPAIERMGVKLTALRKMGAGIAITGLSWIVVGTIQLMMDGGSALSIFWQILPYALLTFGEVLVSATGLEFAYSQAPKAMKGTIMSFWTLSVTVGNLWVLLANVSVKSPTVTEQIVQTGMSVTAFQMFFFAGFAILAAIVFALYARSYQMQDHYRQAT”, the protein production result is given as “failed”.
With “MTTRRLALFDLDHTLLPLDSDYQWADFLARTGRAGDPAEARRRNDDLMERYNRGELTAEQAAEFMLGLLAAHSPVELAAWHEEFMRDVIRPSLTVQAVDVVRGHLAAGDLCALVTATNSFVTAPIARAFGVQHLIATDPEYRDGRYTGRIEGTPSFREGKVVRVNQWLAGMGLALGDFAESYFYSDSVNDVPLLEAVTRPIAANPSPGLREIAQARGWQVIDLFDHLEDAKS” the entry was “not failed”; with “MTTTFEFLQPRIHGFATCCSSNSLLYSKASRFFNDRCRVYRQNPNRFVSNSITLPLQKKQVTVLRNHERFNLWDGFSRKKSRLVVNCQEDDQNESSSEEEESSQSTPAKSERKREKKEDKVWWSKGKKWQWQPIIQAQGIGVLLLQLSVVMFVMRLLRPGIPLPGSEPRIQTTFVSVPYSEFLSKVNSNQVQKVEVDGVQVLFKLRDDGKWQESETSRLSQSSESLLRTVAPTKRVVYSTTRPGDIKTPYEKMLGNNVEFGSPEKRSGGFFNSALIALFYIAVLAGLIRFPVSFSTSSTGQLRTRKAGGPDGGKVSGGGETITFADVAGVDEAKEELEEIVEFLRNPEKYVRLGARPPRGVLLVGLPGTGKTLLAKAVAGEAEVPFISCSASEFVELYVGMGASRVRDLFARAKKEAPSIIFIDEIDAVAKSRDGKFRMGSNDEREQTLNQLLTEMDGFDSNSAVIVLGATNRADVLDPALRRPGRFDRVVTVETPDKIGRESILRVHVSKKELPLGDDVNLGSIASMTTGFTGADLANLVNEAALLAGRKNKTNVEKIDFIQAVERSIAGIEKKSARLKGNEKAVVARHEAGHAVVGTAVANLLTGQPRVEKLSILPRTGGALGFTYIPPTSEDRYLLFIDELLGRLVTLLGGRAAEEVVYSGRISTGAFDDIRRATDMAYKAVAEYGLNQKIGPVSVATLSGGGIDDSGGSPWGRDQGKLVDLVQKEVTILLQSALDVALSVVRANPDVLEGLGAQLEEKEKVEGEELQKWLSMVVAPEELAVFVEGKQELLLPAQASSS”, “failed”.
Consider “MTTTIHMLTIIILCGIVTWLTRIIPFVMISKVHLSERVVKWLSFIPITLFTALIIDGVLVQQEGVMGYTINMPFLITMIPTIVVAIVSRSLTITILSGIIIMALLRWVF”, for which the protein production entry was “failed”.
With “MTTTMSTLPVVLVDEILARVPITSLRSLRSTCKKWEASSKTNLVGGKATARKSSHVGFILIGDKICSMKLDLNGGDDFVDTSVNQVSAFDGFAISQLFHCDGLLFCISNNHYSNYTLMVCNMYLGETRLIQNRSLFESYQNFCSYAFGYDSSKNRNHKILRNNSVSGGYEIYSLKSDSWKDLNVDLEKSIHLWRLGSVSLKGNAYFRVIKVIEEGVWEYNLLCFDFTRESFGKLLSLPFESLGDEGEGIMVISCVRDDHLAVLYQRDTLGIWISTEIEPNKVSWREFLQVDLATLDGFPDVFIAGRFIVDEEKQVVVVFGQETELDLNHGNAFIFGRDGYFTSFTVGDAPPEDFTSYVPSLVSLQIDKTGKRKARDD”, the protein production entry is on record as “failed”.
In the case of “MTTTTAQPAASLAAALEHAERLLEVDPVMAAEQARAILEVVPRHADTTRVLAAAQRLSGDAEGGLATVAPLAMALPNLPLAQLELALCLERLGRTAEAARAFDRVSALEPRLSEAWRGLSESLELLGDRQGAERALARQLRASTRDPLLVEAATALAEDRLGEAERLLRDRLKADAGDVAAIRMLAETGARLGRYADAEALLTRCMELAPNFAAARHNLATMLYRQNKNLEALAQIEQLVAKDARHPGYANLYAAILARLGEYDRAIAVYGQVLADYPNQPKGWMSYGHALKTVGRQADSVAAYRKALDLAPTLGEVWWSLANLKTVRFTPEDLAAMSQALEAEGLSEDDRLHLHYALGKAQEDAQDWDASFQHYAAGAAIRREQLDYDADENTADTVRTKAVFSPAFIAARGGQGCAAPDPIFVVGLPRSGSTLVEQILASHSLVEGTMELPDLIVMARRLGGKTAKRAESTYPESLAELSPEDLRALGEEFLERTRIQRKTDKPFFIDKMPNNFAHTGLIHLILPNAKIIDARRHPLGCCFSGFKQHFARGQAFSYDLTDIGRYYADYVDLMAHFDAVLPGRVHRVIYERMIADPEAEIRALLDHCGLPFEEACLSPHENDRAVRTASSEQVRRPIFKDAVEHWQKFESHLGPLKQALGPVLTAYPDAPVI”, the protein production entry is recorded as “failed”.
“MTTVAVSSLPQGTSVTLRNVTKSFGTTKVLNGLDLNIHSGELVALLGPSGCGKSTLLRIIAGFEAADQGSVLLDDVDVSGVPTNRRDIGLVFQAYSLFPHLNAVENVMYGLSIRHVAKTEAKSSAVELLASVGLADYADRYPAQLSGGQQQRVALARALATKPRVLLLDEPLSALDAKVRVQLRDEIRALQLETHTTTIMVTHDQEEALVMADRIAVMYNGRFEQVGTPAEIYHSPATAFVAGFVGSMNVLPGVLSTDGTAQTIGCRVPVHAAAGAATLNPGPVDVFVRPEELRLQIANDDLNDHDAVLGTVTSTVLRGAFTSVMVAMGDGLHLRVDLPSKDAQLFTPGCSVMVRIADEPMLCTARRVECVA”: the protein production entry was “failed”.
As to “MTVAPFDTAKLDRLMEEAGIDVIAATSKHNTQYLMGGYKFIFFAAMDAIGHSRYLPMVIYEKGAPDHSAYVGNRMEGAEHQNNPFWTPAVHTATWGTQDAAGLAVEHLKKIGKASGRIGIEPAFLPSDARDLLASRLDGARFVDATHVLERLRAVKTADELAKLRRASELITDSMLATIAAARAGSTKLEIIEQLRREETNRGLHFEYCLLTLGASHNRAGSPQAWAEGEILSIDSGGNYHGYIGDLCRMGVLGEPDAELEDLLAEVERIQQAAFAKVRAGVLGSEMIVAAEAELKASPSAAFTDFFCHGMGLITHEAPFLMTNHPVAYEGIDADKPLEAGNVISVETTMLHPKRGFIKLEDTLAITDKGYEMFGDRGRGLEHHHHHH”, the protein production result was “failed”.
As for “MTVAQQAPSALNFDCETGNYHTFCPISCVSWLYQKIEDSFFLVIGTKTCGYFLQNAMGVMIFAEPRYAMAELEEGDISAQLKDYEELKRLCLQIKRDRNPSVIVWIGTCTTEIIKMDLEGLAPQLEAEIGIPIVTARANGLDYAFTQGEDTVLASMAHKCPTSAQVQGEDKEERNAIQKLLTFGRKADQEKVESEYVDHQPLVLFGSLPDPVVTNLTLELKKQGVKVSGWLPAKRYTELPVIDEGYYVAGVNPFLSRTATTLMRRRKCKLIGAPFPIGPDGTRAWIEKICSVLGIEPQGLEEREAQIWASLEDYIQLIRGKSVFFMGDNLLEVSLARFLIRCGMTCPEIGIPYMDKRYQAAELALLEKTCSDMGVPLPNIVEKPDNYNQIQRIKALQPDLVITGMAHANPLEAQGINTKWSVEFTFAQIHGFTNARDILELATRPLRRNSQLGELGWDKLIAKDVPAQV”, the entry is “failed”.

The values are drawn from a protein production outcome set (Wang et al. 2014).
